Measured values reported in patent publication US20050008628A1.

Molecular target: mutant voltage gated potassium channel (Kv1.3)
Assay: cell-based or functional assay

Margatoxin (from UniProt P40755 1-39) (peptide)
local ventricular effective refractory period (ERP) at graft site after MTx, one rat (170 ms before MTx): 100 ms
